Measured values from patent US9120851B2, “Human antibodies to human angiopoietin-like protein 4” (Regeneron Pharmaceuticals, Inc., priority 2009, dated 2015).
Numbering of substitutions follows the chain as printed.

Legend:
hANGPTL4(26-406)-His = target: T1, hANGPTL4(26-406)-His (Homo sapiens, UniProt Q9BY76); assay: BIACORE, full mAb or Fab over amino-coupled hANGPTL4(26-406)-His; assay type: binding; details: for RU bound at 50 nM mAb or Fab: amino-coupled 450 RU
T1 construct: purchased R&D Systems
T1 sequence (Q9BY76 26-406): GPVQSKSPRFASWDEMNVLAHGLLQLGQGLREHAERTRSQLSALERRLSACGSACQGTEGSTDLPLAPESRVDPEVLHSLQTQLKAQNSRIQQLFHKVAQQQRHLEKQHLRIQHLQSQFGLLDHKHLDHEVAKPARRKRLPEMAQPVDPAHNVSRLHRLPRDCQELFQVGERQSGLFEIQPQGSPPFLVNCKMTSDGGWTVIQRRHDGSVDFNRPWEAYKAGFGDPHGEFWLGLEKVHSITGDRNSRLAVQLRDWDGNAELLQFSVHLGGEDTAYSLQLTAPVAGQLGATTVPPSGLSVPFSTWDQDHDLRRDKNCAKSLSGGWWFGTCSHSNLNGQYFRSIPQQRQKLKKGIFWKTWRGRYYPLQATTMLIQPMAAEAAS
Protocol: Briefly, various concentrations (3.125 nM-100 nM) of anti-hANGPTL4 antibodies (i.e., H1H268 Fab, entire H1H268 mAb, H1H284 Fab, and entire H1H284 mAb) were injected over a low density anti-mFc captured hANGPTL4(26-148)-mFc (˜68±4 RU) surface, or the surface of amino-coupled hANGPTL4(26-406)-His (R&D Systems) (450 RU) or amino-coupled cynomolgus monkey N-terminal region (amino acid residues 1-130 of SEQ ID NO:490) expressed with an C-terminal hexa-histidine tag (MfANGPTL4(1-130)-His) (1,028 RU). Kinetic analysis was performed to measure ka and kd, and KD values and half-life of antigen/antibody complex dissociation were calculated. The results are shown in Table 4 (H1H268P) and Table 5 (H1H284P).

humanized ANGPTL4 mice = assay: Serum TG levels in humanized ANGPTL4 mice; assay type: in vivo, mouse; details: for Serum TG: mean±SEM
Protocol: The effect of anti-hANGPTL4 antibodies H1H268P and H1H284P on serum TG levels was determined in mice expressing the ANGPTL4 protein containing the human N-terminal coil-coil region (“humanized ANGPTL4 mice”). The humanized ANGPTL4 mouse was made by replacing first three exons of the mouse Angptl4 gene (the N terminal coil-coil region) with the corresponding human N-terminal coil-coil ANGPLT4 sequence in C57BL6/129 (F1H4) embryonic stem cells. After germ line transmission was established, heterozygous mice (ANGPTL4hum/+) were bred together to generate homozygous mice [ANGPTL4hum/hum or hANGPTL4(+/+)] on a C57BL6 background. Humanized ANGPTL4 mice were pre-bled 7 days before (day −7) the experiment and put into groups of six mice each for each antibody tested. Antibodies (H1H268P, H1H284P and isotype-matched (hIgG1) control with no known cross-reactivity to mouse antigens) were administered at 10 mg/kg dose by subcutaneous injection. Mice were bled after 4 hours of fasting at days 1, 4, 7 and 11 after antibody injection; and serum TG levels were determined by ADVIA® 1800 Chemistry System (Siemens). Average TG levels were calculated for each time point for each antibody.
The effect of anti-hANGPTL4 antibodies, H4H268P2 and H4H284P, on serum TG levels was determined in humanized ANGPTL4 mice. Humanized ANGPTL4 mice were pre-bled 7 days before the experiment and put into groups of six mice each for each antibody tested. Antibodies (H4H268P2, H4H284P and isotype-matched (hIgG4) control with no known cross-reactivity to mouse antigens) were administered at 10 mg/kg dose by subcutaneous injection. Mice were bled after 4 hours of fasting at days 1, 4, 7 and 11 after antibody injection; and TG levels were determined in the serum by ADVIA® 1800 Chemistry System (Siemens). Average TG levels were calculated for each time point for each antibody.

[1] = tested on: C57BL/6 mice given hANGPTL4-mFc; assay type: in vivo; details: antibody 5 mg/kg s.c.; 24 h later hANGPTL4-mFc 25 μg/mouse i.v.; bled 30 min after; mean±SEM
Protocol: In another set of experiments, selected anti-hANGPTL4 antibodies were tested for their ability to inhibit hANGPTL4-induced increase of triglyceride levels. Measurements of total cholesterol, LDL, NEFA-C and HDL were also made. Briefly, C57BL/6 mice were put into groups of five mice each for each antibody tested. Antibodies were administered at 5 mg/kg dose by subcutaneous injection. Control group I, i.e., mice that received neither anti-hANGPTL4 antibodies nor hANGPTL4, were administered with PBS. Twenty-four hours post-injection of antibody, hANGPTL4-mFc (SEQ ID NO:480) was administered (i.v.) at a dose of 25 μg/mouse to each antibody group. Mice were bled at 30 min after hANGPTL4-mFc injection and lipid levels were determined by ADVIA® 1650 Chemistry System (Siemens). Averages were calculated for each of the measurements of triglycerides, total cholesterol (Total-C), LDL, NEFA-C and HDL for each antibody or control group. Levels of circulating anti-hANGPTL4 antibodies (Serum Ab) were also determined using a standard ELISA assay. Briefly, plates were coated with a goat anti-human Fc antibody (Sigma-Aldrich) to capture Serum Ab. Serum was then added to the plates and captured anti-hANGPTL4 antibodies were detected by chemiluminescence using a horseradish peroxidase (HRP) conjugated goat anti-human IgG antibody (Sigma-Aldrich). Control I: Mice that received PBS, but neither anti-hANGPTL4 antibodies nor hANGPTL4-mFc. Control II: Mice that received a human antibody specific for CD20 (i.e., the mAb having the sequence of 2F2 clone disclosed in US 2008/0260641) and hANGPTL4-mFc.

[2] = day 1 after injection, 10 mg/kg s.c., 4 h fasting
[3] = day 4 after injection, 10 mg/kg s.c., 4 h fasting
[4] = day 7 after injection, 10 mg/kg s.c., 4 h fasting
[5] = day 11 after injection, 10 mg/kg s.c., 4 h fasting

B1: H1H284P: anti-hANGPTL4 antibody, hIgG1 isotype, HCVR/LCVR SEQ ID NOs 90/92 (antibody, V domains shown)
VH: QVQLVESGGGVVQPGRSLRLSCAASGFTFSSYGMHWVRQAPGKGLEWMAVISFDGGNKNNADSVKGRFTISRDNSKNTLYLQMNSLRAEDTAVYYCAKEGDRSGHPYFYYYGLDVWGQGTTVTVS
VL: DIQLTQSPSFLSASVGDRVTITCWASQGISSYLAWYQQKPGKAPKLLIYAASTLQSGVPSRFSGSGSETEFTLTISSLQPEDFATYYCQQLHSYPLTFGGGTKVEIK
ka (hANGPTL4(26-406)-His; pH 5.75, 25° C.): 1.93e+06 M⁻¹ s⁻¹
kd (hANGPTL4(26-406)-His; pH 5.75, 25° C.): 0.000272 s⁻¹
RU bound at 50 nM mAb or Fab (hANGPTL4(26-406)-His; pH 5.75, 25° C.): 101
ka (hANGPTL4(26-406)-His; pH 7.2, 25° C.): 850000 M⁻¹ s⁻¹
kd (hANGPTL4(26-406)-His; pH 7.2, 25° C.): 8.85e-05 s⁻¹
RU bound at 50 nM mAb or Fab (hANGPTL4(26-406)-His; pH 7.2, 25° C.): 77
Serum TG (humanized ANGPTL4 mice; [2]): 125 ± 18 mg/dL
Serum TG (humanized ANGPTL4 mice; [3]): 67 ± 9.8 mg/dL
Serum TG (humanized ANGPTL4 mice; [4]): 91 ± 7.2 mg/dL
TG levels relative to control, in words (humanized ANGPTL4 mice; day 11 after injection, 10 mg/kg s.c.): increased back to control level
Serum TG (humanized ANGPTL4 mice; [5]): 109 ± 11 mg/dL
Serum TG (humanized ANGPTL4 mice; day −7 (pre-bleed)): 113 ± 11 mg/dL
HDL [1]: 39.60 ± 3.46 mg/dL
LDL [1]: 4.98 ± 0.87 mg/dL
NEFA-C [1]: 0.99 ± 0.11 mg/dL
Total-C [1]: 80.80 ± 6.40 mg/dL
Triglycerides [1]: 99.20 ± 9.52 mg/dL

B2: H1H268P: anti-hANGPTL4 antibody, hIgG1 isotype, HCVR/LCVR SEQ ID NOs 42/44 (antibody, V domains shown)
VH: QVQLQESGAGLLKPSETLSLTCTVYGGSFSIHHWTWIRHPPGKGLEWIGEINHRGSTNYNPSLKSRVTISIDTSKNQFSLKLSAVTAADTAVYYCARGLRFLDWLSSYFDYWGQGTLVTVSS
VL: DIQMTQSPSSLSASVGDRVTITCRASQGISDYLAWYQQKPGKVPNLLIYAASALQSGVPSRFSGSGSGTDFTLTISSLQPEDVATYYCQNYNTAPLTFGGGTKVEIK
ka (hANGPTL4(26-406)-His; pH 5.75, 25° C.): 923000 M⁻¹ s⁻¹
kd (hANGPTL4(26-406)-His; pH 5.75, 25° C.): 0.000446 s⁻¹
RU bound at 50 nM mAb or Fab (hANGPTL4(26-406)-His; pH 5.75, 25° C.): 45
ka (hANGPTL4(26-406)-His; pH 7.2, 25° C.): 489000 M⁻¹ s⁻¹
kd (hANGPTL4(26-406)-His; pH 7.2, 25° C.): 0.0002 s⁻¹
RU bound at 50 nM mAb or Fab (hANGPTL4(26-406)-His; pH 7.2, 25° C.): 38
reduction in circulating TG compared to isotype-matched control antibody (humanized ANGPTL4 mice; 4-11 days after administration, 10 mg/kg s.c.): 25-30%
Serum TG (humanized ANGPTL4 mice; [2]): 129.8 ± 5.6 mg/dL
Serum TG (humanized ANGPTL4 mice; [3]): 73.3 ± 8.9 mg/dL
Serum TG (humanized ANGPTL4 mice; [4]): 83 ± 14 mg/dL
Serum TG (humanized ANGPTL4 mice; day −7 (pre-bleed)): 112 ± 9.3 mg/dL
HDL [1]: 35.94 ± 1.64 mg/dL
LDL [1]: 4.94 ± 0.51 mg/dL
NEFA-C [1]: 0.82 ± 0.04 mg/dL
Triglycerides [1]: 92.60 ± 11.44 mg/dL

B3: H4H268P2: IgG4 version of H1H268P with a single amino acid substitution in framework region 1, HCVR/LCVR SEQ ID NOs 487/44 (antibody, V domains shown)
VH: B2 VH with E6Q
VL: B2 VL
modifications: IgG4 constant region
reduction in circulating TG compared to isotype-matched control antibody, in words (humanized ANGPTL4 mice; day 1, 10 mg/kg s.c.): significant reduction
Serum TG (humanized ANGPTL4 mice; [2]): 81 ± 6.8 mg/dL
reduction in circulating TG compared to isotype-matched control antibody, in words (humanized ANGPTL4 mice; day 4, 10 mg/kg s.c.): significant reduction
Serum TG (humanized ANGPTL4 mice; [3]): 67 ± 5.3 mg/dL
Serum TG (humanized ANGPTL4 mice; [4]): 56 ± 7.1 mg/dL
Serum TG (humanized ANGPTL4 mice; [5]): 87 ± 8.7 mg/dL
Serum TG (humanized ANGPTL4 mice; day −7 (pre-bleed)): 101 ± 9.3 mg/dL
